According to patent US7026125, “Heterodimers of retinoid X receptors (RXRS) and other steroid hormone receptors” (Ligand Pharmaceuticals):

Legend:
RARβ/RXRα heterodimer = RARβ/RXRα heterodimer (UniProt P10826-2;P19793 P10826-2:1-448,P19793:1-462); experiment: EMSA; details: label: 32P
Method: (§1) (a) In vitro synthesized TRα, TRβ, RARα, RARβ, RARγ and TRα2 receptor proteins were preincubated either with (+) or without (−) equal amount of in vitro synthesized RXRα protein at room temperature for 10 minutes. Following this preincubation, the reaction mixtures were incubated with ^32p-labelled palindromic TRE (for 1 sequence see FIG. 2a) and analyzed by gel retardation assay as described in Experimental Procedures. […] As a control, equal amounts of TRα and RARα proteins were also mixed and incubated with labelled TRE.
(§2) In vitro translated receptor protein (1 to 5 μl depending on the translation efficiency) was incubated with the ^32P-labeled oligonucleotides in a 20-μl reaction mixture containing 10 mM hepes buffer, pH 7.9, 50 mM KCl, 1 mM DTT, 2.5 mM MgCl, 10% glycerol, and 1 μg of poly(dI-dC) at 25° C. for 20 minutes. In general, relative low receptor concentration was used to obtain the clear effect of heterodimer formation. The reaction mixture was then loaded on a 5% nondenaturing ployacrylamide gel containing 0.5×TBE (1×TBE=0.089 M Tris-borate, 0.089 M boric acid, and 0.002 M EDTA). To analyze the effect of RXRα or the nuclear proteins on receptor DNA binding activity, RXRα or the cell extracts were preincubated with receptor protein at room temperature for 10 minutes before performing the DNA binding assay. When antibody was used, 1 μl of the antiserum was incubated with the specific translation products at room temperature for 45 minutes before performing the experiments described above.

TRβ = biological target: T1, TRβ (UniProt P10828 P10828:1-461); experiment: EMSA; details: label: 32P
T1 sequence: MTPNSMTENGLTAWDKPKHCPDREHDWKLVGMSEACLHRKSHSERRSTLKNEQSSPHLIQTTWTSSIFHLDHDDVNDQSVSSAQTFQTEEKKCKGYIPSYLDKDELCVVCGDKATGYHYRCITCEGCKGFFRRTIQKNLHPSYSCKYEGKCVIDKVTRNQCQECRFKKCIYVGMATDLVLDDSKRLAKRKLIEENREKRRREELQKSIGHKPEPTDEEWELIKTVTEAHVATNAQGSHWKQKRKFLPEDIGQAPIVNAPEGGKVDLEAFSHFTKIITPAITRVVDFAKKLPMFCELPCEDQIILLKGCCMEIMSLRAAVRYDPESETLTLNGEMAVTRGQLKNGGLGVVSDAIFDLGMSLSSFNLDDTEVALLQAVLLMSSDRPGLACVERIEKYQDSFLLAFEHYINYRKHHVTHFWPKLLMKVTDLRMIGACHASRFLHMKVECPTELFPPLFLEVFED
Method: as §1, §2

RARγ/RXRα heterodimer = RARγ/RXRα heterodimer (UniProt P13631;P19793 P13631:1-454,P19793:1-462); experiment: EMSA; details: label: 32P
Sequence of RARγ/RXRα heterodimer (P19793 whole entry, chain 2 of 2, one chain of several): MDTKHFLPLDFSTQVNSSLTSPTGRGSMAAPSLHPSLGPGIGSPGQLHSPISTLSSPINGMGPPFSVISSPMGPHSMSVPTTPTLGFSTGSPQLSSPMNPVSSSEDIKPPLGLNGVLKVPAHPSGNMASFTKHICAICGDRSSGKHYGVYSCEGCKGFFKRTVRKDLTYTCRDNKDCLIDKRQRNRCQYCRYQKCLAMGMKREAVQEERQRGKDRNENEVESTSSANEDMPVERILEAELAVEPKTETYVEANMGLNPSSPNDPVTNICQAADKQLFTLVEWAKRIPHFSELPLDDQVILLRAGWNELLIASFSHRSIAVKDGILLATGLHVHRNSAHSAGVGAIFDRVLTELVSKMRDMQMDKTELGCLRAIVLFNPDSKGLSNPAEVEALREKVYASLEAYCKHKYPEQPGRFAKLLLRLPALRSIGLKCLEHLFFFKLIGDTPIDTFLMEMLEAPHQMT
Method: as §1, §2

[1] = biological target: Flag-RXRα/TRα heterodimer (UniProt P19793;P10827-2 P19793:1-462,P10827-2:1-410); experiment: EMSA; strongly reduced by anti-Flag; details: tags: N-terminal Flag on RXRα; label: 32P
Sequence of Flag-RXRα/TRα heterodimer (P19793 whole entry, one chain of several): as the sequence (P19793 whole entry, chain 2 of 2, one chain of several) above
Method: As a control, receptor mixtures were also incubated with preimmune serum (NI).
as §2

RARγ = biological target: T2, RARγ (UniProt P13631 P13631:1-454); experiment: EMSA; no detectable complex under conditions used; details: label: 32P
T2 sequence: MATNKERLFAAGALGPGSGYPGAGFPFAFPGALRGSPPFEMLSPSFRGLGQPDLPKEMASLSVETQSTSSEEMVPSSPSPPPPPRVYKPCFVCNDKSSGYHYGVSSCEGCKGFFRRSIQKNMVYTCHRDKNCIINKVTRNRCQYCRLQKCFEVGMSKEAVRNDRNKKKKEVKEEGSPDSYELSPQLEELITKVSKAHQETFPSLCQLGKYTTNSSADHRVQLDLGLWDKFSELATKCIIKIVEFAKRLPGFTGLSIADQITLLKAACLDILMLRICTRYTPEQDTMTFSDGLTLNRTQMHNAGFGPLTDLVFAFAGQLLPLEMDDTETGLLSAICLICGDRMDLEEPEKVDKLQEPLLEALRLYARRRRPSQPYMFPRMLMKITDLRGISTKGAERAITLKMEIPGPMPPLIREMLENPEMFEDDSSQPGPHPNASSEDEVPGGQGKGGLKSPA
Method: as §1, §2

RARα = biological target: T3, RARα (Homo sapiens, UniProt P10276 P10276:1-462); experiment: EMSA; no detectable complex under conditions used; details: label: 32P
T3 sequence: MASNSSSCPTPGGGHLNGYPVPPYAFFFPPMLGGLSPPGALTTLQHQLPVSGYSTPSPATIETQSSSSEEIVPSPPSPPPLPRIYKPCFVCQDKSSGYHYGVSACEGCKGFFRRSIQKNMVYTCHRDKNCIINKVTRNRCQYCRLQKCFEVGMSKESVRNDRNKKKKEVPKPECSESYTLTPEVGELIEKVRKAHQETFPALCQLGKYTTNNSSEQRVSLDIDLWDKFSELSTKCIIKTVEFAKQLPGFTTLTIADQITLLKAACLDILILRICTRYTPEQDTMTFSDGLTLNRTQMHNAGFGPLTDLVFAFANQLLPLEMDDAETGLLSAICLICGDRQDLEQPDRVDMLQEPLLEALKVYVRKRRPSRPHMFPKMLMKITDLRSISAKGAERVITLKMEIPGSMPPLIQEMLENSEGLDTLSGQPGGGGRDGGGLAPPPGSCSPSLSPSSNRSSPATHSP
Method: as §1, §2

[2] = biological target: Flag-TRα/RXRα heterodimer (UniProt P10827-2;P19793 P10827-2:1-410,P19793:1-462); experiment: EMSA; inhibited by anti-Flag; details: tags: N-terminal Flag on TRα; label: 32P
Sequence of Flag-TRα/RXRα heterodimer (P19793 whole entry, one chain of several): as the sequence (P19793 whole entry, chain 2 of 2, one chain of several) above
Method: (b) Effect of anti-Flag-TRα antibody on binding of the slow migrating complex. In vitro synthesized Flag-TRα (F-TRα) protein was incubated with in vitro synthesized RXRα protein in the presence or absence of anti-Flag antibody. The effect of antibody on DNA binding of the slow migrating complex was analyzed as described in FIG. 2a. For control, the receptor mixture was also incubated with preimmune serum (NI). The effect of anti-Flag antibody on DNA binding of Flag-RXRα, RXRα, Flag-TRα, and TRα was also analyzed. For comparison, anti-Flag antibody/Flag-RXRα-TRα interaction was run on the same gel (lanes 7–10).
In vitro translated receptor protein (1 to 5 μl depending on the translation efficiency) was incubated with the ^32P-labeled oligonucleotides in a 20-μl reaction mixture containing 10 mM hepes buffer, pH 7.9, 50 mM KCl, 1 mM DTT, 2.5 mM MgCl, 10% glycerol, and 1 μg of poly(dI-dC) at 25° C. for 20 minutes. In general, relative low receptor concentration was used to obtain the clear effect of heterodimer formation. The reaction mixture was then loaded on a 5% nondenaturing ployacrylamide gel containing 0.5×TBE (1×TBE=0.089 M Tris-borate, 0.089 M boric acid, and 0.002 M EDTA). […]

Sequence of RARβ/RXRα heterodimer (P10826 other isoform, or with tags, fused parts or gaps, chain 1 of 2): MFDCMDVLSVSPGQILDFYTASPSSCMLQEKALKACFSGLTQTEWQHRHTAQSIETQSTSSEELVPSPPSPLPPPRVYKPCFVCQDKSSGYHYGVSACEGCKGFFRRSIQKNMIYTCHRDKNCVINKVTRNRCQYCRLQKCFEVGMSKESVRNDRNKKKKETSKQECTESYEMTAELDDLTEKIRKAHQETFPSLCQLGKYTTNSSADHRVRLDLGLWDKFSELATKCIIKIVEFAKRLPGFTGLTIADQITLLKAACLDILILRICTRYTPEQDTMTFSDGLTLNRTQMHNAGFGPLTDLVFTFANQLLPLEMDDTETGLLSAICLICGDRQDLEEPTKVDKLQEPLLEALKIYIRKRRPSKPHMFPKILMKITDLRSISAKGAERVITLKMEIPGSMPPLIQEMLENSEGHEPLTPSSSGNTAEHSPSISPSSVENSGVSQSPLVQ
Sequence of RARβ/RXRα heterodimer (P19793 whole entry, chain 2 of 2): as the sequence (P19793 whole entry, chain 2 of 2, one chain of several) above

B1: palindromic TRE (dsDNA)
DNA 1: GATCTCAGGTCATGACCTGAGATC
DNA 2: GATCTCAGGTCATGACCTGAGATC
binding result (RARβ/RXRα heterodimer): binds | binding result (TRβ): binds | binding result (RARγ/RXRα heterodimer): binds | binding result [1]: binds | binding result (RARγ): no binding | binding result (RARα): no binding | binding result [2]: binds
